Assay results published in the supplement of paper PMC12764529.
± gives the half width of the 95% confidence interval.

Key:
[1] = folding stability dG unfold from trypsin proteolysis; higher = more stable
Procedure, shortened: (§1)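 Bayesian fitting of sequencing counts gave K50 for each design. Unfolding free energy followed by setting this against a sequence-predicted unfolded-state K50 and a shared folded-state K50, either per protease or with trypsin and chymotrypsin combined. The designs, under 80 residues and lacking cysteine, were digested in a PA-tagged cDNA display format at 11 threefold-diluted protease concentrations and without protease, and only those with AlphaFold2 dimer inter-PAE above 15 were kept.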

[2] = folding stability dG unfold from chymotrypsin proteolysis; higher = more stable
Procedure, shortened: as §1

[3] = folding stability dG unfold (combined trypsin and chymotrypsin); higher = more stable
Procedure, shortened: as §1

Sequence | folding stability dG unfold [1] [kcal/mol] | folding stability dG unfold [2] [kcal/mol] | folding stability dG unfold [3] [kcal/mol]
SAGEKKKVVIVVHIHIEAESEEDREKALEEARKLAEELARELKEKLGLPEDVKEVVVIVHIHPRSEEEKSAG [r5_436_TrROS_Hall] | 2.01 ± 0.086 | 2.42 ± 0.083 | 2.25 ± 0.12
SAGGEMVTIRVRAPDPEKLIEALREEFPEGLTIRPFPRPTPDGYEVLIVVPAERPEELLEAVERAIGSAGGS [r16_43_TrMRF] | 2.01 ± 0.075 | 2.17 ± 0.022 | 2.13 ± 0.068
SAGGSAGGSAGGGSMKEKKLTVGDKEIIVTYNPETGTATVKSPENSVSVFPLEELKKLLSAGGSAGGSAGGS [r10_1140_JUSTAS] | -1.25 ± 0.93 | 0.741 ± 0.1 | 0.318 ± 0.24
SPSRPTLVTTYTFDPSGVPTATTKEITPEEVEELEKKGWKKLSEDPEKGLITLEKKLPTSPQKIEVTILPSA [r9_5_JUSTAS] | -0.402 ± 0.2 | 0.0733 ± 0.27 | 0.0748 ± 0.29
SAGGSMLTPDQVIELPDPNVTATITESEVLEEDPEHGTLLVKYLVVISKNGNPVEEERLLRVPKPVSAGGSA [r2_272_JUSTAS] | 0.205 ± 0.042 | -0.476 ± 0.22 | -0.01 ± 0.079
SAGGLKPGDWVIIMTIEFPFPFPDDDGKPQEWRIKITIWVPVEYDPPDGKLEIDNIFINIEIVPPDQISAGG [r13_312_TrROS] | 3.52 ± 0.22 | 4.55 ± 0.1 | 4.44 ± 0.18
SAGGLLPLLKEIAEALGLPEIESLSFDPETGELTLRFRGPEPYLLRIPFRPVKDGGIPLDIEVYPTDLSAGG [r13_410_TrMRF] | 2.86 ± 0.06 | 3.006 ± 0.03 | 3.02 ± 0.056
SAGGSAGMVVEVREFEIEPDEDKKIKATLERYETPEGPRYVLTIEDPSKNEKKSYPLEPGVDFKKLSAGGSA [r15_75_JUSTAS] | -0.0245 ± 0.26 | 0.681 ± 0.14 | 0.488 ± 0.2
SAGGSMVKEIEIPVPEDWTPEDAVEAAREYLEANPELENVIVRFTLPDGTPLVVEIKPGGKIVKVTPESAGG [r13_690_JUSTAS] | 1.71 ± 0.069 | 3.26 ± 0.07 | 2.83 ± 0.15
SAGGSAGGSGSMEFTIDDEDLRIEIKFLPGGKVEITIWDPTNNVPLKTIETEPEEIEEVIEKLSAGGSAGGS [r20_129_JUSTAS] | 2.18 ± 0.17 | 2.05 ± 0.048 | 2.15 ± 0.082
SATFKPGETVTIDELTIDGATITKVTVTVNADGTITITATIKPAPPPPPPPEVVRNPETGKTYPAGEVKDSA [r9_603_TrROS_Hall] | 1.87 ± 0.19 | 0.615 ± 0.087 | 1.34 ± 0.23
SAGGSAGGKVKFEIPNAKITSVEYDPNPGLLKVEFELPNGLKLTAIFKIDKDKAILAKIEISPESAGGSAGG [r6_718_TrMRF] | 2.57 ± 0.071 | 3.51 ± 0.045 | 3.23 ± 0.081
SAGGSAKPELVKKLKEALEEEFPDLKVEVVKVDKKNKKIYIKVKSEEEKKRIAELLKKLGIEVEIESAGGSA [r15_196_TrROS_Hall] | 3.06 ± 0.25 | 3.33 ± 0.079 | 3.18 ± 0.21
SADYVLYLVTLKVRRKVGDKEYELEVPLLILAPEDELDESEIEAIAREAAAELGAEVEEVKIERLPLNASAG [r14_278_TrMRF] | 3.94 ± 0.11 | 4.88 ± 0.086 | 4.66 ± 0.059
SAGGSAGGSSQRIKIEDIEPPPNGQWRVRIKMPNGKEREVTMPPDKLEIELPPNITDVSLWPVSAGGSAGGS [r20_194_TrROS] | 3.88 ± 0.16 | 3.91 ± 0.33 | 4.01 ± 0.33
SAGGSAGGSAGMPIEKALEQADKNGRPVQIRVPNGRDIYITVKYKNGKYKIEIMPAEEIKSAGGSAGGSAGG [r17_463_TrROS] | 1.09 ± 0.047 | 1.89 ± 0.085 | 1.51 ± 0.18
SAGGSAGGSAGGTPITDEEFRDLPDDVKLVFENGEVAYVPRDPLKVPIGADKTVTAEPVPSAGGSAGGSAGG [r7_643_TrMRF] | 1.2 ± 0.059 | 0.388 ± 0.035 | 0.801 ± 0.056
SAGGSAGGSPPGWTIMMFEITISITVPRVEVYDPKDGKPRAEVPYVRVSIPIPIFIIFPAGAFSAGGSAGGS [r12_600_TrROS] | 2.93 ± 0.17 | 4.24 ± 0.12 | 3.77 ± 0.11
SAGGSAGGSAGGPVRLLVLEVPVENVEEVVRRLEALGSVRPVRVERLPGDRYRVLVVSPLSAGGSAGGSAGG [r7_589_TrMRF] | 1.3 ± 0.046 | 1.54 ± 0.05 | 1.46 ± 0.056
SAGGKEVKITFKAPKEEAVPKVKKAAEEYGVTVKSIDYDPETGKVTVVVDDSVPEEKVKEAFEKVLKSAGGS [r8_338_TrMRF] | 1.53 ± 0.078 | 1.75 ± 0.082 | 1.75 ± 0.21
SAGGAPTVELKTETIETEDGTYLVVEAKVPTPDVTLEIKLPHGGETEVVYDPETGTATVVFRLPPDWLSAGG [r13_380_TrMRF] | 1.72 ± 0.088 | 2.51 ± 0.053 | 2.25 ± 0.15

Sequence | folding stability dG unfold [1] [kcal/mol] | folding stability dG unfold [2] [kcal/mol] | folding stability dG unfold [3] [kcal/mol]
SAGGMKIIPITPEMIEEAKKLGLTPEDEAFEFEVTLPNGEVLRGTLIIPPDNPDIPVEAEPYLNLDKSAGGS [r16_497_TrMRF] | 0.555 ± 0.1 | 0.904 ± 0.092 | 0.703 ± 0.18
SAGGGPDEVSEVKVSSTTTDPATGKTYTVDTTTVTTPGTVTTNTTYTVHDPVTGAVTTETTTTTTPPGSAGG [r13_206_JUSTAS] | 0.583 ± 0.034 | 0.481 ± 0.075 | 0.59 ± 0.045
SAGGGMMWTVTFYPKETDTPITFPVPKEYITEIDEENNKIVIKKPPGETIEITDFNKIKSIEITPLPSAGGS [r8_111_JUSTAS] | 0.541 ± 0.04 | 0.528 ± 0.18 | 0.586 ± 0.15
SAGGDSISDIESVNIYSFNIPSNPYPYIIAELTIPDGRKIIAIYDPSTNTVTIIIEDDGKPRIITLPASAGG [r13_960_TrMRF] | 2.49 ± 0.1 | 2.9 ± 0.12 | 2.7 ± 0.11
SAGTIRGLPAEFAKRIANELAQNGYEIVAVTVTYDPPNGTFKIEVEMRPPNGKVREHDIEIQVRLPPDDSAG [r5_985_TrROS] | 1.72 ± 0.057 | 2.7 ± 0.092 | 2.45 ± 0.17
KKVKIEIEVLSKTEEGYVMIAKAKYEEVEKVFEKPYKSKNPIETIKKIVKELFPGPEVTEVKVKYYPKEKKS [r1_399_TrMRF] | 1.11 ± 0.053 | 1.47 ± 0.11 | 1.35 ± 0.17
SAGGSAGGSAMVVEIKPEKLPNGKYKVTVTITDPSTGKTTTTPYIVDPNKFTEEDIKKKLSSAGGSAGGSAG [r3_127_JUSTAS] | 1.37 ± 0.055 | 1.5 ± 0.077 | 1.58 ± 0.098
SAGGMTITVRVKAENPEEAIKKVEETVRSLGYRVVELKEVEVRYDEATGEVFVEATVEVEPLPEEEGSAGGS [r16_155_TrMRF] | 4.37 ± 0.13 | 4.81 ± 0.12 | 4.8 ± 0.12
SAGGSAMIKIKLPNGEVAEIELSPDGKKVLIRYKDGSIEEIEIKDGKITKIKPLPNAPPNAEIVEVSAGGSA [r15_709_TrROS_Hall] | 1.92 ± 0.029 | 2.72 ± 0.041 | 2.47 ± 0.077
SAGGSAGGSPWKKVKFKFMFPFPNYYVRISIEIWVNPGDNEIMIEMSIEIFPIPPGDNKAFKDSAGGSAGGS [r12_885_TrROS] | 2.79 ± 0.24 | 3.9 ± 0.11 | 3.31 ± 0.36
SAGGSAGGSAMPKTTVYTIPYESDEEAEARIEEIKAEARARNPEAKVTVTPAGESVNVTIVGSAGGSAGGSA [r18_469_JUSTAS] | -0.7 ± 0.34 | -0.116 ± 0.19 | -0.376 ± 0.2
SAGGEETVTLELELEFEPGMTEEELEEKARELAEALAEELGLEVEVEVRVERDEDGRVRVTVEVRVKSAGGS [r16_279_TrROS_Hall] | 2.94 ± 0.076 | 2.06 ± 0.051 | 2.56 ± 0.086
SAPPDDWKPVTIPILIPFDSVEDAKEWVIELANELAKKHGWRINIDVDIEPVPNRYYIKIPITIYVPKKSAG [r14_626_TrROS] | 2.39 ± 0.19 | 2.42 ± 0.18 | 2.47 ± 0.31
SAKKPKKVIEVTIVLPLEELKNMSLEELLKKILEELGIKEGEKVKIEVKLEEVEIDGKKYLVITVRIELSAG [r14_334_TrROS_Hall] | 2.87 ± 0.13 | 2.69 ± 0.11 | 2.69 ± 0.15
SAGGSVEFEETITDPLKSLEEAKALAEEIEAELKAKGYKVTVTVTVVPPGSVTATITVTTDPAKGKKASAGG [r13_697_JUSTAS] | 0.822 ± 0.063 | 1.34 ± 0.072 | 0.82 ± 0.22
SAGMEPTTITVDVTIPPEVFARLSEEELKEKVLAELGIPESLPVEVEISRKEVKLDGKTVYVVPMTIVGSAG [r14_334_JUSTAS] | 0.117 ± 0.085 | 0.652 ± 0.11 | 0.407 ± 0.089
SAGGSAGGSAMTPDETRTVVVEEELPNGEPVVRVTDVRTLPDGSLETLGERVITREELEERSAGGSAGGSAG [r3_212_JUSTAS] | -0.438 ± 0.2 | 0.743 ± 0.064 | 0.394 ± 0.11
SAGGSAGGSAGGGKKILGVQPELFYDPENGTLYVKTVAVGEDENGAPGDADISVEPFPLLSAGGSAGGSAGG [r7_892_TrMRF] | 0.242 ± 0.053 | -0.596 ± 0.54 | -0.277 ± 0.26
SAGGSAGGSKKIKIKVKVKNPKTKKYYEIEIEISEEELKEGKLTKEQIKKELEKLGYEVEIVPSAGGSAGGS [r20_221_TrROS_Hall] | 3.26 ± 0.15 | 2.6 ± 0.07 | 2.9 ± 0.095
SAGGSAGGSAGRMLVIEIEMPGRKRTFMIPTPDGPPIKAEELADKLGFDNVTVKIHPIDDSAGGSAGGSAGG [r11_219_TrROS] | -0.12 ± 0.55 | 0.261 ± 0.31 | 0.0664 ± 0.16
SAGGEISPEDIKELEIYPIPPEDAQKNGYIMIEIKGPGGKPIAQIMIPVRVPKVKDKDGKPMDLEDMNSAGG [r13_864_TrROS] | 1.13 ± 0.044 | 1.6 ± 0.07 | 1.32 ± 0.22
